Assay results taken from patent US20090318535A1 (NEW YORK UNIVERSITY, published 2009).

Columns and labels:
[1] = biological target: T1, HA-BimEL (S94/98A) mutant (human, UniProt O43521 1-198); test: co-immunoprecipitation with HA resin from transfected HEK293 cells (FIG. 2A)
T1 construct: HA-tagged, expressed in HEK293
Protocol: Twenty-four hours after transfection, cells were treated for 3 hours with PMA and MG 132. Whole cell extracts (WCE) were subjected to immunoprecipitation using HA resin (α-HA) followed by immunoblotting with indicated antibodies.

[2] = biological target: T2, human BimEL (Bcl-2-Interacting Mediator of cell death, Extra Long isoform) (human, UniProt O43521 1-198, phosphorylated in cells after PMA treatment (Ser69, Ser93, Ser94, Ser98 as the filing reports)); test: co-immunoprecipitation with FLAG resin from HEK293 cells expressing FLAG-tagged F-box proteins, immunoblot for BimEL
T2 construct: 198 aa protein, GenBank AAC39593; also called HA-BimEL WT; wild-type BimEL
Protocol: For these binding studies, HEK293 cells were transfected with the indicated FLAG-tagged Fbw family F-box protein constructs (in FIG. 1). Twenty-four hours after transfection cells were treated for 3 hours with PMA (20 nM) and the proteasome inhibitor MG132 (10 μM) then harvested and lysed. Whole cell extracts (WCE) were subjected to immunoprecipitation using FLAG resin (α-FLAG), followed by immunoblotting with indicated antibodies (EV: empty vector).

binding result [1]: no binding
B1: human β-TrCP1 (beta-transducin repeat containing protein 1) (other)
chain: MDPAEAVLQEKALKFMCSMPRSLWLGCSSLADSMPSLRCLYNPGTGALTAFQNSSEREDCNNGEPPRKIIPEKNSLRQTYNSCARLCLNQETVCLASTAMKTENCVAKTKLANGTSSMIVPKQRKLSASYEKEKELCVKYFEQWSESDQVEFVEHLISQMCHYQHGHINSYLKPMLQRDFITALPARGLDHIAENILSYLDAKSLCAAELVCKEWYRVTSDGMLWKKLIERMVRTDSLWRGLAERRGWGQYLFKNKPPDGNAPPNSFYRALYPKIIQDIETIESNWRCGRHSLQRIHCRSETSKGVYCLQYDDQKIVSGLRDNTIKIWDKNTLECKRILTGHTGSVLCLQYDERVIITGSSDSTVRVWDVNTGEMLNTLIHHCEAVLHLRFNNGMMVTCSKDRSIAVWDMASPTDITLRRVLVGHRAAVNVVDFDDKYIVSASGDRTIKVWNTSTCEFVRTLNGHKRGIACLQYRDRLVVSGSSDNTIRLWDIECGACLRVLEGHEELVRCIRFDNKRIVSGAYDGKIKVWDLVAALDPRAPAGTLCLRTLVEHSGRVFRLQFDEFQIVSSSHDDTILIWDFLNDPAAQAEPPRSPSRTYTYISR
notes: also called Fbp1
binding result [2]: binds
